From PMC8599806

Target: RECQL (UniProt P46063)
Test: ID3 co-IP, Western blot
Conditions: reference: wild type ID3; sites S65

ID3 (from UniProt Q02535) S65A
binding against the reference: lost
